Positions count from the first letter of the chain named. Blank lines part the entries; values can stand above or below the binder they belong to.
Legend:
Test in all cases: SPR (BIAcore T200), RSPO3 immobilized, antibody injected, 25 C, 1:1 Langmuir
human RSPO3 = target: T1, human RSPO3 (human, UniProt Q9BXY4 22-272)
T1 construct: Recombinant human RSPO3 protein (Genentech); also called huRSPO3; hRSPO3
T1 sequence: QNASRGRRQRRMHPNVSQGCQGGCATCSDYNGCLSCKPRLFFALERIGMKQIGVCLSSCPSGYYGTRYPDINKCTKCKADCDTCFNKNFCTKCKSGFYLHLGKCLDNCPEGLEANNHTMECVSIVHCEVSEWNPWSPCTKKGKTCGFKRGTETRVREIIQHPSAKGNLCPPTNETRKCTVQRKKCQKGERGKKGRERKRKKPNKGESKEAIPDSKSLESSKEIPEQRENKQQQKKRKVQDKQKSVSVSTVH

[1] = target: T2, murine RSPO3 (R&D Systems Cat. No. 4120-RS/CF) (murine, UniProt Q2TJ95 22-277, limits assumed)
T2 construct: also called mouse RSPO3
T2 sequence (looked up): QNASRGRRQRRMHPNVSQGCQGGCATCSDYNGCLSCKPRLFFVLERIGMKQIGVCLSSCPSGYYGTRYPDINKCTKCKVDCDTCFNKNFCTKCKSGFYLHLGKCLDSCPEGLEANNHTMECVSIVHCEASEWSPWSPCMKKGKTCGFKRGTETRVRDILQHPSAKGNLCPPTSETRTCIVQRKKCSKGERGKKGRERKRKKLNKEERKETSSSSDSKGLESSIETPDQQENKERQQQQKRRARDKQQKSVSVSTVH

cynomolgus RSPO3 = target: T3, cynomolgus RSPO3 (cynomolgus, UniProt A0A2K5UTQ7 22-273)
T3 construct: also called cyno RSPO3
T3 sequence: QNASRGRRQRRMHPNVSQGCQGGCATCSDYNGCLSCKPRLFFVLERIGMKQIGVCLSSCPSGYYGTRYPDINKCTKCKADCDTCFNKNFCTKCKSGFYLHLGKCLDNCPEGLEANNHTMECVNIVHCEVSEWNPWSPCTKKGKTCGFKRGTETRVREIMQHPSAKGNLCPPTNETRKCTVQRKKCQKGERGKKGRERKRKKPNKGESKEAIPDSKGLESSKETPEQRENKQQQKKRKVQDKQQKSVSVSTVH

B2: hu4A6.L4H2 (antibody, V domains shown)
VH: EVQLVESGGGVVQPGRSLRLSCAASGFTFSDYDMAWVRQAPGKGLEWVATIIYDGSRTYYRDSVKGRFTISRDNSKNTLYLQMNSLRAEDTAVYYCAAHDRSFDYWGQGTMVTVSS
VL: DIQMTQSPSSLSASVGDRVTITCLASEDISNDLVWYQQKPGKAPKLLIYAASRLQDGVPSRFSGSGFGTDFTLTISSLQPEDFATYYCQQSYKYLPTFGQGTKLEIK
notes: CDR graft only (L4, H2); also called humanized 4A6
Kd (human RSPO3): 0.434 nM
koff (human RSPO3): 8.47e-05 s⁻¹
kon (human RSPO3): 195000 M⁻¹ s⁻¹
Kd [1]: 0.441 nM
koff [1]: 8.08e-05 s⁻¹
kon [1]: 183000 M⁻¹ s⁻¹
Kd (cynomolgus RSPO3): 0.247 nM
koff (cynomolgus RSPO3): 5.95e-05 s⁻¹
kon (cynomolgus RSPO3): 241000 M⁻¹ s⁻¹

B3: hu11C10.L5H1 (antibody, V domains shown)
VH: B2 VH with A98T, R101K, S102T
VL: DIQLTQSPSSLSASVGDRVTITCRASEDIYSDLAWYQQKPGKAPKLLIYDVNSLIHGVPSRFSGSGSGTDFTLTISSLQPEDFATYYCQQYDNYPNTFGQGTKLEIK
notes: CDR graft light chain L5 with H1; also called humanized 11C10
Kd (human RSPO3): 3.01 nM
koff (human RSPO3): 0.00145 s⁻¹
kon (human RSPO3): 480000 M⁻¹ s⁻¹
Kd [1]: 3.22 nM
koff [1]: 0.00138 s⁻¹
kon [1]: 429000 M⁻¹ s⁻¹
Kd (cynomolgus RSPO3): 1.75 nM
koff (cynomolgus RSPO3): 0.00121 s⁻¹
kon (cynomolgus RSPO3): 695000 M⁻¹ s⁻¹

B4: hu15F3.L4H2 (antibody, V domains shown)
VH: B2 VH with T58A, Y60F, R61G, K65R, A97T
VL: B2 VL with A25V, L33F, F67S, L95P
notes: CDR graft only (L4, H2); also called humanized 15F3
Kd (human RSPO3): 0.839 nM
koff (human RSPO3): 0.000164 s⁻¹
kon (human RSPO3): 196000 M⁻¹ s⁻¹
Kd [1]: 0.775 nM
koff [1]: 0.000147 s⁻¹
kon [1]: 190000 M⁻¹ s⁻¹
Kd (cynomolgus RSPO3): 0.466 nM
koff (cynomolgus RSPO3): 0.000116 s⁻¹
kon (cynomolgus RSPO3): 248000 M⁻¹ s⁻¹

B6: chimeric 15F3 (antibody, V domains shown)
VH: EVQLVESGGGLVQPGRSLKLSCAASGFTFSDYDMAWVRQAPKKGLEWVATIIYDGSRAYFGDSVRGRFTVSRDNTKSTLYLQMDSLRSEDTATYYCTAHDRSFDYWGQGVMVTVSS
VL: DIQMTQSPASLSASLGETVSIECLVSEDISNDFVWYQQKSGKSPQLLIYAASRLQDGVPSRFSGSGSGTRFSLRISGMQPEDEAEYFCQQSYKYPPTFGAGTKLELK
notes: Chimeric counterpart with the rat 15F3 variable domains
Kd (human RSPO3): 0.845 nM
koff (human RSPO3): 0.000151 s⁻¹
kon (human RSPO3): 179000 M⁻¹ s⁻¹
Kd [1]: 0.926 nM
koff [1]: 0.000156 s⁻¹
kon [1]: 169000 M⁻¹ s⁻¹
Kd (cynomolgus RSPO3): 0.576 nM
koff (cynomolgus RSPO3): 0.000121 s⁻¹
kon (cynomolgus RSPO3): 210000 M⁻¹ s⁻¹

B7: chimeric 11C10 (antibody, V domains shown)
VH: EVQLVESGGGLVQPGRSLKLSCAASGFTFSDYDMAWVRQAPKKGLEWVATIIYDGSRTYYRDSVKGRFTISRANAKSTLYLQMDSLRSEDTATYYCATHDKTFDYWGQGVMVTVSS
VL: DIQMTQSPASLSASLGETVTIECRASEDIYSDLAWYQQKPGNSPQLLIYDVNSLIHGVPSRFSGSGSGTQFSLKINNLQSEDVASYFCQQYDNYPNTFGAGTKLELK
notes: Chimeric counterpart with the rat 11C10 variable domains
Kd (human RSPO3): 2.67 nM
koff (human RSPO3): 0.00113 s⁻¹
kon (human RSPO3): 425000 M⁻¹ s⁻¹
Kd [1]: 2.76 nM
koff [1]: 0.00107 s⁻¹
kon [1]: 388000 M⁻¹ s⁻¹
Kd (cynomolgus RSPO3): 1.52 nM
koff (cynomolgus RSPO3): 0.000963 s⁻¹
kon (cynomolgus RSPO3): 633000 M⁻¹ s⁻¹

Continued, values first:

Kd (human RSPO3): 0.485 nM
koff (human RSPO3): 0.000127 s⁻¹
kon (human RSPO3): 261000 M⁻¹ s⁻¹
Kd [1]: 0.913 nM
koff [1]: 0.000326 s⁻¹
kon [1]: 357000 M⁻¹ s⁻¹
Kd (cynomolgus RSPO3): 0.697 nM
koff (cynomolgus RSPO3): 0.000321 s⁻¹
kon (cynomolgus RSPO3): 461000 M⁻¹ s⁻¹
B1: anti-RSPO3 antibody 5D6 (WO2015/058132) (antibody, V domains shown)
VH: EVQLQESGPSLVKPSQTLSLTCSVTGDSITSGYWNWIRKFPGNKFEYMGYISYSGKTYQNPSLKSRISITRDTSKNQYHLQLNSVTTEDTATYYCATYYGYGGPWFAYWGQGTLVTVSA
VL: DIVLTQSPSSMYASLGERVTITCKASQDIDSYLSWFQQKPGKSPKTLIYLTNRLVDGVPSRFSGSGSGQDYSLTISSLEYEDMGIYYCLHYDEFPLTFGAGTKLEIK

Kd (human RSPO3): 0.363 nM
koff (human RSPO3): 5.85e-05 s⁻¹
kon (human RSPO3): 161000 M⁻¹ s⁻¹
Kd [1]: 0.337 nM
koff [1]: 5.22e-05 s⁻¹
kon [1]: 155000 M⁻¹ s⁻¹
Kd (cynomolgus RSPO3): 0.174 nM
koff (cynomolgus RSPO3): 3.36e-05 s⁻¹
kon (cynomolgus RSPO3): 194000 M⁻¹ s⁻¹
B5: chimeric 4A6 (antibody, V domains shown)
VH: B6 VH with L11S, L20V, A58T, F60Y, G61R, R65K, V70L, Y80C, T97A, V110I
VL: B6 VL with V25A, F33L, S67F, R74K, E85D, P95L, E105G
notes: Chimeric counterpart of hu4A6 with the rat 4A6 variable domains

From patent publication US20170319688A1 (Genentech, published 2017)
